Measurements published in the nanobody polyreactivity screen of Harvey et al. (2022).

Experiment: yeast display, Sf9 membrane polyspecificity reagent, FACS + sequencing; frameworks hold sequencing errors
How it was run: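 Nanobodies from a synthetic yeast display library (Saccharomyces cerevisiae BJ5465), induced 36–48 hours with galactose, were stained 1 hour at 4 °C with 10% biotinylated, detergent-solubilized Sf9 membrane reagent, enriched on streptavidin microbeads, then FACS-sorted. Anti-HA (expression) and streptavidin (reagent binding) fluorescence set low and high (top ~1%) gates. Polyreactivity labels come from the gate of origin. Genes were colony-PCR amplified, MiSeq 2 × 250 sequenced and filtered by CDR length.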

Sequence	polyreactivity (PSR sort gate)
QVQLVESGGGLVQAGGSLRLSCAASGRIFLSYTMGWYRQAPGKERELVAAISRGGRTYYADSVKGRFTISRDNAKNTVYLQMNSLKPEDTAVYYCAKKYGRYGSLRGRTIDDYWGQGTQVTVSS	low polyreactivity
QVQLVESGGGLVQAGGSLRLSCAASGRIFLVNAMGWDRQAPGKERELVAAINFISGSTYYADSVKGRFTISRDNAKNTVYLQMNSLKPEDTAVYYCAAYSYWSYVQRYNLEYDYWGQGTQVTVSS	low polyreactivity
QVQLVESGGGLVQAGGSLRLSCAASGRIFLVYAMGWYIQAPGKERDLVASISSRGSSTNYADSVKGRFTISRDNANNTDYLQMNSLKPEDTAVYYCAAGVYRPRYQSTAYDYWGQGTQVTVSS	high polyreactivity
QVQLVESGGGLVQAGGSLRLSCAASGRIFLVYAMGWYRQAPGKERELVAAISWRGGRTYYADSVKGRFTISRDNAKNTVYLQMNILKPEDTAVYYCAAASKYSQFEYDYWGHGTQVTVSS	high polyreactivity
QVQLVESGGGLVQAGGSLRLSCAASGRIFLVYAMGWYRQAPGKERELVAAISWRGGRTYYADSVKGRFTISRDNAKNTVYLQMNSLKPEDTAVYYCAAASKYSQFEYDYWGQGTQVTVSS	high polyreactivity
QVQLVESGGGLVQAGGSLRLSCAASGRIFLVYVMGWYRQAPAKERELVAANSWSGGSTYYADSVKGRFTISRDNAKNTVYLQMNSLKPEDTAVYYFAAYYRGRNFDYWGQATQVTVSS	high polyreactivity
QVQLVESGGGLVQAGGSLRLSCAASGRIFLWNAMGWYRPAPGKERELVAGISWRGSSTYYADSVKGRFTISRDNAKNTVYLQMNSLKPEDTAVYYCAARTRGGRGYGMYYWGQGTQVTVSS	high polyreactivity
QVQLVESGGGLVQAGGSLRLSCAASGRIFLWYAMGWYRQAPGKERELVAAISWDTGNTYYADSVKGRFTISRDNAKNTVYLQINSLKPEDTAVYYCNADNYEWGNNYGYWGQGTQVTVSS	low polyreactivity
QVQLVESGGGLVQAGGSLRLSCAASGRIFLWYAMGWYRQAPGKERELVAAIWRGGSTYYADSVKGRFTISRDNAKNTVYLLMNSLKPEDTAVYYCAAEDVYFGYDYWGQGTQVTVSS	low polyreactivity
QVQLVESGGGLVQAGGSLRLSCAASGRIFLWYAMGWYRQAPGKERELVAVITGGGSTNYADSVKGRFTISRDNAKNTVYLQMNSLKPEDTAVYYCATEGYGHGGETDGGVYSDLGYWGQGTQVTVSS	low polyreactivity
QVQLVESGGGLVQAGGSLRLSCAASGRIFLYYAMGWYRQAPGKERELVAAIDSSGGNTNYADSVKGRFTISRDNAKNTVYLQMNSLKPEDTAVYYCAADFYVSADRWPNYDYWGHGTQVTVSS	low polyreactivity
QVQLVESGGGLVQAGGSLRLSCAASGRIFLYYAMGWYRQAPGKERELVAAITSSGGDTYYADSVKGRFTISRDNAKNTVYLQMNSLKPEDTAVYYCAALGGRYRASTYGYWGQGTQVTVSS	high polyreactivity
QVQLVESGGGLVQAGGSLRLSCAASGRIFLYYAMGWYRQAPGKERELVAAITSSGGGTYYADSVKGRFTISRDNAKNTVYLQMNSLKPEDTAVYYCNKAGPYYGYPHYLFYYWGQGTQVTVSS	high polyreactivity
QVQLVESGGGLVQAGGSLRLSCAASGRIFLYYAMGWYRQAPGKERELVAAITSSGGGTYYADSVKGRFTISRDNAKNTVYLQMNSLKPLDTAVYYCAARRRSQWRYYYWGQGTQVTVSS	high polyreactivity
QVQLVESGGGLVQAGGSLRLSCAASGRIFLYYTMGWYRQAPGKERELVAAITRSGGSTYYADSVKGRFTISRDNAKNTVYLQMNSLKPEDTAVYYCNRAYVRYVPMNYWGQGTQVTVSS	high polyreactivity
QVQLVESGGGLVQAGGSLRLSCAASGRIFNAYAMGGYRQAPGKERELVAAISGGGRTYYADSVKGRFTISRDNAKNTVYLQMNSLKPEDTAVYYCAADSPTQSTLGKYDYWGQGTQVTVSS	high polyreactivity
QVQLVESGGGLVQAGGSLRLSCAASGRIFNAYAMGWYRPAPGKERELVAAISSIGGRTYYADSVKGRFTISRDNAKNTVYLQMNSLKPVDTAVYYCAADWSYVRYYYWGQGTQVTVSS	high polyreactivity
QVQLVESGGGLVQAGGSLRLSCAASGRIFNFNGMGWYRQAPGKERELVAAITSGGSTYYADSVKGRFTISRDNAKNTVYLQMNSLKPEDTAVYYCAAQNAWWSNGRSYDYWGQGTQVTVSS	low polyreactivity
QVQLVESGGGLVQAGGSLRLSCAASGRIFNGYTMGWYRQAPGKETEFVATISRSGGSTYYADSVKGRFTISRDHAKNTVYLQMNSLKPEDSAVYYCAKTYPAKWEYDYWGQGTQVTVSS	low polyreactivity
QVQLVESGGGLVQAGGSLRLSCAASGRIFNHYAMGWYRQAPGKERELVATISATGGSTYYADSVKGRFTISRDNAKNTVYLQMNSLNPEDTAVYYCNAGHLWYWRTRSARRVGMVYWGQGTQVTVSS	low polyreactivity
QVQLVESGGGLVQAGGSLRLSCAASGRIFNLYAMGWYRQAPGKERDLVAAINWSGDRTYYADSVKGRFTISRDNAKNTVYLQMNSLKPDDTAVYYCNADGLEIERYAYWYVFLGYDYWGQGTQVTVSS	low polyreactivity
QVQLVESGGGLVQAGGSLRLSCAASGRIFNLYAMGWYRQAPGKERELVAAINWSGDRTYYADSVKGRFTISRDNAKNTVYLQMYSLKPEDTAVYYCNADGLEIERYAYWYVFLGYDYWGQGTQVTVSS	low polyreactivity

Sequence	polyreactivity (PSR sort gate)
QVQLVESGGGLVQAGGSLRLSCAASGRIFNLYAMGWYRQAPGKERELVAGISWSGGDTTYADSVKGRFTISRDNAKNTVYLQMNSLKPEDTAVYYCNKRAYLDYGGRGYNYWGQGTRVTVSS	low polyreactivity
QVQLVESGGGLVQAGGSLRLSCAASGRIFNNNAMGWYRPAPGKERELVASITRRGGRTYYADSVKGRFTISRDNAKNTVYLQMNSLKPEDTAVYYCNALAGPPEFVRNYYWGQGTQVTVSS	high polyreactivity
QVQLVESGGGLVQAGGSLRLSCAASGRIFNRYAMGWSRQAPGKERELVAAITTSADSTYADSVKGRFTISRDNAKNTVYLQRNSLKPEDTAVYYCNVASRQGSTYDYWGQGTQVTVSS	high polyreactivity
QVQLVESGGGLVQAGGSLRLSCAASGRIFNRYARGWYRQAPGKERELVAAITYNGGSTYYADSVKGRFTISRDNAKNTVYLQMNSLKPEDTAVYYCNAVEVLDEGCGFWYYYWGQGTQVTVSS	high polyreactivity
QVQLVESGGGLVQAGGSLRLSCAASGRIFNSNTMGWYRQAPGKERELVAAITYSGGSTYYADSVKGRFTISRDNAKNTVYLQMNSLNPEDTAVYYCAADFWEYDGPWYANDYDSWGQGTQVTVSS	low polyreactivity
QVQLVESGGGLVQAGGSLRLSCAASGRIFNVNAMGWYRQAPGKERDLVARIDTGVGTKYADSVKGRFTISRDNAKNTVYLQMNSLKPEDTAVYYCAARSFSGYGYLVRPKWYYYWGQGTQVTVSS	high polyreactivity
QVQLVESGGGLVQAGGSLRLSCAASGRIFNVYAMGWYRQAPGKERELVASINSAGSTYYADSVKGRFTISRDNAKNTVYLQMNSLKPEDTAVYYCAADSYSVYYYTYDSWGQGTQVTVSS	low polyreactivity
QVQLVESGGGLVQAGGSLRLSCAASGRIFNYAMGWYRQAPGKERELVAAISRGGGRTYYADSVKGRFTISRDNAKNTVYLQMNSLKPEDTAVYYCAADLSPEYDYWGQGTQVTVSS	high polyreactivity
QVQLVESGGGLVQAGGSLRLSCAASGRIFNYNAMGWYRQAPGKERELVAAISSGGDTYYADSVKGRFTISRDNAKNTVYLQINSLKPEDTAVYYCGSTFVVKGTRFGYWGQGTQVTVSS	high polyreactivity
QVQLVESGGGLVQAGGSLRLSCAASGRIFNYYAMRWYRQAPGKETELVAAITSSGGSTYYADSVKGRFTISRDNAKNTVYLQMNSLKPEDTAVYYCAAVSTATIRGGYWGQGTQVTVSS	high polyreactivity
QVQLVESGGGLVQAGGSLRLSCAASGRIFNYYDMGWYRQAPGKEREFVAAISWRGTSTRYADSVKGRFTISRDNAKNTVYLQMNSLKPEDTAVYYCAADDYARRFSFKYDYWGQGTQVTVSS	high polyreactivity
QVQLVESGGGLVQAGGSLRLSCAASGRIFPAYAMGWYRQAPGKERELVASIRRGGITYADSVKGRFTISRDNAKNTVYLQMNSLKPEDTAVYYCARPQWRDWYGYWGQGTQVTVSS	low polyreactivity
QVQLVESGGGLVQAGGSLRLSCAASGRIFPAYVMGWYRQAPGKERELVATIDNGGCTYYADSVKGRFTISRDNAKNTVYLQMNSLKPEDTAVYYCARDRHVRWGLKMDYWGQGTQVTVSS	low polyreactivity
QVQLVESGGGLVQAGGSLRLSCAASGRIFPAYVMGWYRQPPGKERELVATIDNGGGTYYADSVKGRFTISRDNAKNTVYLQMNSLKPEDTAVYYCARDPHVRWGLKMDYWGQGTQVTVSS	low polyreactivity
QVQLVESGGGLVQAGGSLRLSCAASGRIFPEYAMGWYRQAPGKERELVAAITSGGNYADSVKGRFTISRDNAKNTVYLQMNSLKPEDTAVYYCAAVYLWYGSWPLHFAAYDYWGQGTQVTVSS	low polyreactivity
QVQLVESGGGLVQAGGSLRLSCAASGRIFPFNAMGWYRQAPGKERELVAAISSSGGSTYYADSVKGRFTISRDNAKNTVYLQMNSLKPEDTAVYSCAATRNSDGMGYWGQGTEVTVSS	low polyreactivity
QVQLVESGGGLVQAGGSLRLSCAASGRIFPFYAMGWNRQAPGKERELVAAITSSGGRTYYADSVKGRFTISRDNAKNTVYLQMNSLIPEDTAVYYCAADDTDYPEYDYWGQGTQVTVSS	high polyreactivity
QVQLVESGGGLVQAGGSLRLSCAASGRIFPFYVMGWYRQAHGKERELVATINWSGGSTYYADSVKGRFTISRDNAKNTVYLQMNRLKPEDTAVYYCNGAPSDDYDYWGQGTQVTVSS	low polyreactivity
QVQLVESGGGLVQAGGSLRLSCAASGRIFPFYVMGWYRQAPGKERELVATINWSGGSTYYADSVKGRFTISRDNAKNTVYLQMNSLKPEDSAVYYCNAAPSEDYDYWGQGTQVTVSS	low polyreactivity
QVQLVESGGGLVQAGGSLRLSCAASGRIFPFYVMGWYRQAPGKERELVATINWSGGSTYYADSVKGRFTISRDNAKNTVYLQMNSLKPEDTAVYYCNAAPSDDYDYWGQGTQVTVSS	low polyreactivity
QVQLVESGGGLVQAGGSLRLSCAASGRIFPFYVMGWYRQAPGKERELVATINWSGGSTYYADSVKGRFTISRDNAKNTVYLQMNSLKPEETAVYYCNAAPSDDYDYWGQGTQVTVSS	low polyreactivity
